Read-outs that look alike come from different tables or passages of the source. Blank lines part the entries; values can stand above or below the compound they belong to.
Legend:
[1] = tested on: CD4 T cell clone BDC-5.2.9; format: cell-based, NOD mouse; settings: 24 h
[2] = biological target: islet amyloid polypeptide (IAPP), peptide KQ10 peptide on I-Ag7 (mouse); experiment: IFN-γ ELISA
[3] = biological target: islet amyloid polypeptide (IAPP), peptide KV17 peptide on I-Ag7 (mouse); experiment: IFN-γ ELISA
[4] = biological target: islet amyloid polypeptide (IAPP), peptide KS20 peptide on I-Ag7 (mouse); experiment: IFN-γ ELISA
[5] = biological target: islet amyloid polypeptide (IAPP), peptide TS17 peptide on I-Ag7 (mouse); experiment: IFN-γ ELISA
[6] = biological target: islet amyloid polypeptide (IAPP), peptide CS19 peptide on I-Ag7 (mouse); experiment: IFN-γ ELISA
[7] = biological target: islet amyloid polypeptide (IAPP), peptide NS18 peptide on I-Ag7 (mouse); experiment: IFN-γ ELISA
[8] = biological target: islet amyloid polypeptide (IAPP), peptide KN14 peptide on I-Ag7 (mouse); experiment: IFN-γ ELISA
[9] = biological target: islet amyloid polypeptide (IAPP), peptide KG38 peptide on I-Ag7 (mouse); experiment: IFN-γ ELISA
[10] = T cell clone BDC-5.2.9 (2 × 10^4) with peritoneal exudate cells (2.5 × 10^4) and peptide, IFN-γ in culture supernatants of duplicate wells by ELISA

Compound: CC(C)C[C@H](NC(=O)[C@H](CC(N)=O)NC(=O)[C@H](CC(N)=O)NC(=O)[C@H](CO)NC(=O)[C@H](CO)NC(=O)[C@H](CCCNC(=N)N)NC(=O)[C@@H](NC(=O)[C@H](CC(C)C)NC(=O)[C@H](Cc1ccccc1)NC(=O)[C@H](CC(N)=O)NC(=O)[C@H](C)NC(=O)[C@H](CC(C)C)NC(=O)[C@H](CCCNC(=N)N)NC(=O)[C@H](CCC(N)=O)NC(=O)[C@@H](NC(=O)[C@H](C)NC(=O)[C@@H]1CSSC[C@H](NC(=O)[C@@H](N)CCCCN)C(=O)N[C@@H](CC(N)=O)C(=O)N[C@@H]([C@@H](C)O)C(=O)N[C@@H](C)C(=O)N[C@@H]([C@@H](C)O)C(=O)N1)[C@@H](C)O)C(C)C)C(=O)NCC(=O)N1CCC[C@H]1C(=O)N[C@H](C(=O)N[C@@H](CC(C)C)C(=O)N1CCC[C@H]1C(=O)N1CCC[C@H]1C(=O)N[C@H](C(=O)N[C@@H](CC(N)=O)C(=O)N[C@H](C(=O)NCC(=O)N[C@@H](CO)C(=O)N[C@@H](CC(N)=O)C(=O)N[C@H](C(=O)N[C@@H](Cc1ccc(O)cc1)C(=O)NCC(=O)O)[C@@H](C)O)C(C)C)[C@@H](C)O)C(C)C [KG38]
EC50 [1]: 0.2 nM

Compound: BDC-5.2.9
EC50 of peptide [2]: > 100000 nM | EC50 of peptide [3]: 10 nM | EC50 of peptide [4]: 0.2 nM | EC50 of peptide [5]: > 100000 nM | EC50 of peptide [6]: 5 nM | EC50 of peptide [7]: > 100000 nM | EC50 of peptide [8]: > 100000 nM | EC50 of peptide [9]: 0.2 nM

Compound: KCNTATCATQ [KQ10]
EC50 [1, 10]: > 100000 nM

Compound: KCNTATCATQRLAN [KN14]
EC50 [1, 10]: > 100000 nM

The remaining lines, values ahead:

EC50 [1, 10]: > 100000 nM
Compound: NTATCATQRLANFLVRSS [NS18]

EC50 [1, 10]: > 100000 nM
Compound: TATCATQRLANFLVRSS [TS17]

Source: PMC3815676 (Journal of immunology (Baltimore, Md. : 1950), 2013)
